These results are taken from paper PMC2789664.

For one data set, the target named is GAPDH D32A (Homo sapiens, UniProt P04406 1-335, D35A). In words: EMSA.
In another data set the target is GAPDH C149A (Homo sapiens, UniProt P04406 1-335, C152A). The data set is described as follows: EMSA. In general terms: In EMSA bound probe runs differently from free probe, usually more slowly.
Chain of GAPDH C149A (P04406 whole entry C152A): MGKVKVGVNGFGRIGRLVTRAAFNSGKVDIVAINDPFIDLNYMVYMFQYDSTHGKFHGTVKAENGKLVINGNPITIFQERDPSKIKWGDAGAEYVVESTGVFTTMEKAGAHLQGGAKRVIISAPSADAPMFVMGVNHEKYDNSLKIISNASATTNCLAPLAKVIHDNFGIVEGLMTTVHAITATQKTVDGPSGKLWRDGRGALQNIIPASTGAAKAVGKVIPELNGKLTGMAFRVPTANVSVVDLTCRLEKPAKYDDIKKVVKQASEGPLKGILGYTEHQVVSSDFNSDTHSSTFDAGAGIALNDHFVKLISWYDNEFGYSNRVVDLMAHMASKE

Chain of GAPDH D32A (P04406 whole entry D35A): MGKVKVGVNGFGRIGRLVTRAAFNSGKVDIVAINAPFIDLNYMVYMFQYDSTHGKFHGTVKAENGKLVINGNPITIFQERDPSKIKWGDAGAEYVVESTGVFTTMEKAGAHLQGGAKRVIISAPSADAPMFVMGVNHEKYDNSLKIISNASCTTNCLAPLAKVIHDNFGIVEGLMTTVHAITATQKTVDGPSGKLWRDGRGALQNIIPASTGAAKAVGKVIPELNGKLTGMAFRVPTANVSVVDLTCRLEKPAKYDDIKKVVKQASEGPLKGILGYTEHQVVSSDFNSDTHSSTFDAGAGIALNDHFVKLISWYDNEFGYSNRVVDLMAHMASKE

Turning to AGGGTTAGGGTTAGGGTT (ssDNA) [ss-(AGGGTT)3], the binding result in the data set with GAPDH D32A and in the data set with GAPDH C149A was “no binding” in each case.
